Source: paper PMC6089081 (Redox Biology, 2018)

Molecular target: the molecule itself
Test: native gel or EMSA

B1: GRPEL2 (natural protein)
chain: STATQRTAGEDCRSEDPPDELGPPLAERALRVKAVKLEKEVQDLTVRYQRAIADCENIRRRTQRCVEDAKIFGIQSFCKDLVEVADILEKTTECISEESEPEDQKLTLEKVFRGLLLLEAKLKSVFAKHGLEKLTPIGDKYDPHEHELICHVPAGVGVQPGTVALVRQDGYKLHGRTIRLARVEVAVESQRRL
  stoichiometry N: 2
